Reference: patent publication US12221480

Columns and labels:
[1] = target: recombinant human soluble γ2 δ3TCR-FC (wild type) (human) (UniProt B7Z8K6); experiment: Luminex beads; TCR-hFc captured by goat anti-human Fc; antibody titrated
[2] = target: γ2δ3 TCR-hFc mutant S1 (D10N in the Vδ3 chain) (human) (UniProt B7Z8K6); experiment: as above
[3] = target: γ2δ3 TCR-hFc mutant S10 (K3A, K79L, H88T in the Vδ3 chain) (human) (UniProt B7Z8K6); experiment: as above
[4] = target: γ2δ3 TCR-hFc mutant S11 (K79L, L82K, H88F in the Vδ3 chain) (human) (UniProt B7Z8K6); experiment: as above
[5] = target: γ2δ3 TCR-hFc mutant S2 (D26N, K85L in the Vδ3 chain) (human) (UniProt B7Z8K6); experiment: as above
[6] = target: γ2δ3 TCR-hFc mutant S3 (K79L, H88F in the Vδ3 chain) (human) (UniProt B7Z8K6); experiment: as above
[7] = target: γ2δ3 TCR-hFc mutant S4 (E18Q in the Vδ3 chain) (human) (UniProt B7Z8K6); experiment: as above
[8] = target: γ2δ3 TCR-hFc mutant S5 (D70N, E67Q in the Vδ3 chain) (human) (UniProt B7Z8K6); experiment: as above
[9] = target: γ2δ3 TCR-hFc mutant S7 (D57N, R65Q in the Vδ3 chain) (human) (UniProt B7Z8K6); experiment: as above
[10] = target: γ2δ3 TCR-hFc mutant S8 (K79L, E18Q, H88F in the Vδ3 chain) (human) (UniProt B7Z8K6); experiment: as above
[11] = target: γ2δ3 TCR-hFc mutant S6 (R75Q, R95Q in the Vδ3 chain) (human) (UniProt B7Z8K6); experiment: Luminex beads; TCR-hFc captured by goat anti-human Fc; antibody titrated; extrapolated value, no saturation achieved
[12] = target: γ2δ3 TCR-hFc mutant S9 (E67Q, D70N, R75Q, R95Q, E97Q in the Vδ3 chain) (human) (UniProt B7Z8K6); experiment: as above
[13] = target: recombinant human soluble γ2 δ3TCR-FC (wild type) (human) (UniProt B7Z8K6); experiment: Octet, γ2δ3TCR-hFc captured on anti-human Fc biosensor; row antibody δ3-08 taken as first (saturating), column antibody as second; 5 µg/mL each
[14] = target: recombinant human soluble γ2 δ3TCR-FC (wild type) (human) (UniProt B7Z8K6); experiment: Octet, γ2δ3TCR-hFc captured on anti-human Fc biosensor; row antibody δ3-23 taken as first (saturating), column antibody as second; 5 µg/mL each
[15] = target: recombinant human soluble γ2 δ3TCR-FC (wild type) (human) (UniProt B7Z8K6); experiment: Octet, γ2δ3TCR-hFc captured on anti-human Fc biosensor; row antibody δ3-42 taken as first (saturating), column antibody as second; 5 µg/mL each
[16] = target: recombinant human soluble γ2 δ3TCR-FC (wild type) (human) (UniProt B7Z8K6); experiment: Octet, γ2δ3TCR-hFc captured on anti-human Fc biosensor; row antibody δ3-58 taken as first (saturating), column antibody as second; 5 µg/mL each
[17] = target: recombinant human soluble γ2 δ3TCR-FC (wild type) (human) (UniProt B7Z8K6); experiment: Octet, γ2δ3TCR-hFc captured on anti-human Fc biosensor; row antibody δ3-31 taken as first (saturating), column antibody as second; 5 µg/mL each; self pair

- EC50 [1]: 0.05 nM
- EC50 [2]: 0.06 nM
- EC50 [3]: 0.08 nM
- EC50 [4]: 0.06 nM
- EC50 [5]: 0.05 nM
- EC50 [6]: 0.05 nM
- EC50 [7]: 0.05 nM
- EC50 [8]: 4.99 nM
- EC50 [9]: 0.05 nM
- EC50 [10]: 0.06 nM
- EC50 [11]: 44.4 nM
- EC50 [12]: 37.7 nM
- paired-competition value (Octet signal of the second antibody per paragraph 256) [13]: 0.44
- paired-competition value (Octet signal of the second antibody per paragraph 256) [14]: 0.4
- paired-competition value (Octet signal of the second antibody per paragraph 256) [15]: 0.37
- paired-competition value (Octet signal of the second antibody per paragraph 256) [16]: 0.38
- paired-competition value (Octet signal of the second antibody per paragraph 256) [17]: 0.07
B1: δ3-31 (antibody, V domains shown)
VH: DVQLQESGPDLVKPSQSLSLTCTVTGYSITSGYGWHWIRQFPGNKLEWMGYISFSGSNKYNPSLKSRISITRDTSKNQFFLQLNSVTTEDTATYYCANLDYWGQGTTLTVSS
VL: DIQMTQRTSSLSASLGDRVTISCSASQDITNYLHWFQQKPDGTVKLLIYYTSTLHSGVPSRFSGSGSGTDYSLTISNLEPEDIATYYCQQYSKLPYTFGGGTKLEITR
